Values of other authors as cited in article PMC9781680.

Target: GLP1 peptide (Homo sapiens) (UniProt P01275)
Chain of UniProt P01275 (P01275 98-127): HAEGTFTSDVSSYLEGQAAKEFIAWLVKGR

Kd: 0.5 nM
Substance: GLP1R (from UniProt P43220)
